Assay in all cases: purified protein
Substrate in data set [1]: NC(CCS)C(=O)O
The class given is biochemical, Thermus thermophilus. As to conditions: 250 µM CH3-H4folate, SAM, aquacobalamin, DTT, pH 7.2, 50 °C, holo-tMS, DL-homocysteine varied.

Substrate in data set [2]: CN1c2c(nc(N)[nH]c2=O)NC[C@@H]1CNc1ccc(C(=O)N[C@@H](CCC(=O)O)C(=O)O)cc1
As to conditions: 100 µM homocysteine, SAM, aquacobalamin, DTT, pH 7.2, 50 °C, holo-tMS (MeCbl), pH 7.2.

Substrate in data set [3]: C[S+](CC[C@H](N)C(=O)O)C[C@H]1O[C@@H](n2cnc3c(N)ncnc32)[C@H](O)[C@@H]1O
As to conditions: 1.25 mM DL-homocysteine, 104 µM (6S)-methyltetrahydrofolate, 50 °C, holo-tMS, reactivation (reductive methylation of cob(II)alamin).

B1: tMS (full-length cobalamin-dependent methionine synthase) (Thermus thermophilus HB8) (protein)
chain: MVEVHACSPGCRHHLGGAGWGDAPLVRLGYNKEARAKKFPYLKALLERPLVFDGAMGTELQKRDLTPEDYGGEAYFGCPEVLNRTRPEVVREIHLAYLEAGAEVIETNTFGALRHVLAEYGLEEAAEELAFLGARIAREAADPHGAFVAGALGPGTKLVSLGQISWDALYRAYKEAARGLLKGGVDLILLETAQDILQVRCAVLAVREAMAEVGREVPLQVQVTFEATGTMLVGTDEQAALAALESLPVDVVGMNCATGPDLMDSKVRYFAEHSTRFVSCLPNAGLPRNEGGRVVYDLTPEELAKWHLKFVAEYGVNAVGGCCGTGPEHIRKVAEAVKGLAPKPRPESFPPQVASLYQAVSLKQEASLFLVGERLNATGSKRFREMLFARDLEGILALAREQVEEGAHALDLSVAWTGRDELEDLRWLLPHLATALTVPVMVDSTSPEAMELALKYLPGRVLLNSANLEDGLERFDRVASLAKAHGAALVVLAIDEKGMAKTREEKVRVALRMYERLTEHHGLRPEDLLFDLLTFPITQGDEESRPLAKETLLAMEELRERLPGVGFVLGVSNVSFGLKPRARRVLNSVFLDEARKRGLTAAIVDAGKILPISQIPEEAYALALDLIYDRRKEGFDPLLAFMAYFEAHKEDPGKREDAFLALPLLERLKRRVVEGRKQGLEADLEEALKAGHKPLDLINGPLLAGMKEVGDLFGAGKMQLPFVLQAAEVMKRAVAYLEPHMEKKGEGKGTLVLATVKGDVHDIGKNLVDIILSNNGYRVVNLGIKVPIEEILKAVEAHKPHAVGMSGLLVKSTLVMKENLEYMRDRGYTLPVILGGAALTRSYVEELRAIYPNVYYAEDAFEGLRLMEELTGHAPPELTRKAPARPKREAPKVAPRARPVGEAPAVPRPPFFGVRVEEGLDLATIAHYVNKLALYRGQWGYSRKGLSREAWQALVEREAEPVFQRLLKEAMAEGWLEPKVLYGFFPVAREGEELLVFSPETGEVLERFRFPRQKGGGLSLVDYFRPRFAAPLGDEADWMPKEAFRAGARDVLGVQLVTMGEAPSRKAQALFASGAYQDYLFVHGFSVEMTEALAEYWHKRMRQMWGIAHQDATEIQKLFQQGYQGARYSFGYPACPDLADQAKLDRLMGFHRVGVRLTENFQLEPEHATSALVVHHPEARYFSVD
notes: full-length wild type, five modules Hcy:Fol:Cap:Cob:Act, N-terminal His tag with TEV site (cut), E. coli BL21star(DE3); holoenzyme reconstituted with MeCbl; 132 kDa
By Km is commonly meant the concentration of substrate that gives half-maximal velocity. As to B1, the Km in data set [1] amounted to 9.3 ± 3.1 µM; in data set [2], 18 ± 4.1 µM; in data set [3], 1.0 ± 0.1 µM.
